Results reported in publication PMC4324310.

How the values were obtained:
[1] = tested on: T1, RovS (Streptococcus agalactiae NEM316), ORF:d252635c; assay: EMSA
T1 sequence: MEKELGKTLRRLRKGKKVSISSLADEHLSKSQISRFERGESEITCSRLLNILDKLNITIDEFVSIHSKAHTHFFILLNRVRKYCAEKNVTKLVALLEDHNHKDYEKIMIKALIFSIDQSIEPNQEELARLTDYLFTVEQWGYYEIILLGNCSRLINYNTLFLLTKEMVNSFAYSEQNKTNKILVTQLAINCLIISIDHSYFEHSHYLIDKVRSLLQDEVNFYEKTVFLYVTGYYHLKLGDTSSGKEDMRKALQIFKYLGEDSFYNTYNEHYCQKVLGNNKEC

[2] = tested on: T1, RovS (Streptococcus agalactiae NEM316), ORF:d252635c; assay: competition

| Sequence | binding [1] | binding ([1]; part of the binding motif deleted) | binding [2] |
| --- | --- | --- | --- |
| GCAATTTATTATTAATTTGTATGTTTAAAATTAAATAGTTGATATCTAAAACATGATATTTTTAAATTTTCCTTTAATATTATAAAGCATGATAGATAGTCATACTAACATTAAGATTTACAATGAGGTAATAGTATATT (double strand) [PfbsA probe] | no binding |  |  |
| CTAACTTTTTTTCCTTTACGTAATCTTCTTAGTGTTTTTCCTAATTCTTTTTCCATTTTTATTTAAAAGACCCTTTAAATCCATTATATAATACAAGTACAAAATAGAAAATCAGAAAGG (double strand) [Pshp without the motif probe] |  | no binding |  |
| ATTAGTGACTTCTTTCATTGAAAATGATAGAATATAGGTGTATGGGAAACTTCCCAAAAATATTTAAGGAGATGTTTAGAAATGACTGCAACTAAACAACATAAAAAAGTTATCCTCGTTGGTGATGGTG (double strand) [PldhL probe] | no binding |  | no binding |
